Laboratory results: patent US20190202901A1

Tests used:
[1] = molecular target: recombinant human IGF-1R protein (R&D Systems, Cat 391-GR) (human) (UniProt P08069); experiment: direct ELISA on rhIGF-1R coating, dose response
[2] = molecular target: recombinant murine IGF-1R protein (R&D Systems, Cat 6630-GR/Fc) (murine) (UniProt Q60751); experiment: direct ELISA, rmIGF-1R coating, antibody at 5 µg/ml
[3] = molecular target: recombinant human IGF-1R protein (R&D Systems, Cat 391-GR) (human) (UniProt P08069); experiment: direct ELISA, rhIGF-1R coated, goat anti-mouse IgG-HRP, TMB, OD 450 nm; Prism sigmoidal dose-response (variable slope) fit
[4] = molecular target: recombinant human IGF-1R protein (R&D Systems, Cat 391-GR) (human) (UniProt P08069); experiment: direct ELISA, rhIGF-1R coating, antibody at 5 µg/ml

| Binder | EC50 [1] [nM] | OD [2] [OD 450 nm] | BOTTOM (best-fit value) [3] | EC50 [3] [nM] | LOGEC50 [3] | TOP (best-fit value) [3] | OD [4] [OD 450 nm] |
| --- | --- | --- | --- | --- | --- | --- | --- |
| 816C12 (antibody, V domains shown) VH: EVQLQQSGPELVKPGASVKMSCKASGHTFTSYVLHWMKRKPGQGLEWIGYINPHNDVTKYNENFKGKATLTSDKYSSTVYMEVSSLTSEDSAVYYCVSTAYYGNGRYFDVWGAGTTVTVSS VL: DIQMTQTTSSLSASLGDRVTISCRASQDINNYLNWYQQKPDGTVKLLIYYTSRLHSGVSSRFSGSGSGTDYSLTISNLEQEDIATYFCQQGNTLPWTFGGGTKLEIK | 0.41 | 0.065 | 0.116 OD (450 nm) | 0.417 | -9.38 log C [M] | 2.44 OD (450 nm) | 2.62 |
| 810D12 (antibody, V domains shown) VH: EVQLQQSGPELVKPGASVKMSCKASGHTFTSYMLHWVKQKPGQGLEWLGFINPYNDVTKYNENFKGKATLTSDKSSSTAYMELNSLTSEDSAVYFCVTTAYYGNGRYFDVWGAGTTVTVSS VL: DIQMTQTTSSLSASLGDRVTISCRASQDITNYLTWYQQKPDGTVKVLIYYTSRLYSGVPSRFSGSGSGSDYSLTINNLEQEDIATYFCQQGYSLPWTFGGGTKLEIK | 0.51 | 1.29 | 0.0807 OD (450 nm) | 0.513 | -9.29 log C [M] | 2.64 OD (450 nm) | 2.14 |
